Experimental data as given in patent US20260374883 (published 2026).
Substitutions are numbered along the chain they refer to. Blank lines part the entries; values can stand above or below the binder they belong to.

How the values were obtained:
mouse CX3CR1 = biological target: T1, mouse CX3CR1 (mouse, UniProt Q9Z0D9); experiment: FACS
T1 chain: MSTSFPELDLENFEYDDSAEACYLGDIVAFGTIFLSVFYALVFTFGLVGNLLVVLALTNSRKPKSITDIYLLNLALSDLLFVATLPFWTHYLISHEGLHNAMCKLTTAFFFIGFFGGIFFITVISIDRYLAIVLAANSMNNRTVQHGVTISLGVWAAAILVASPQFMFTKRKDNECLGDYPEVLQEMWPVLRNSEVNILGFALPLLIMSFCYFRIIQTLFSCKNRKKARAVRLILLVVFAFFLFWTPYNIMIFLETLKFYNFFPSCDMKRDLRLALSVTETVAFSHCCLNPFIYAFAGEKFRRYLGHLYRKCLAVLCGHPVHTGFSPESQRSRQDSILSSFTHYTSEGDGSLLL

rat CX3CR1 = biological target: T2, rat CX3CR1 (rat, UniProt P35411); experiment: FACS
T2 chain: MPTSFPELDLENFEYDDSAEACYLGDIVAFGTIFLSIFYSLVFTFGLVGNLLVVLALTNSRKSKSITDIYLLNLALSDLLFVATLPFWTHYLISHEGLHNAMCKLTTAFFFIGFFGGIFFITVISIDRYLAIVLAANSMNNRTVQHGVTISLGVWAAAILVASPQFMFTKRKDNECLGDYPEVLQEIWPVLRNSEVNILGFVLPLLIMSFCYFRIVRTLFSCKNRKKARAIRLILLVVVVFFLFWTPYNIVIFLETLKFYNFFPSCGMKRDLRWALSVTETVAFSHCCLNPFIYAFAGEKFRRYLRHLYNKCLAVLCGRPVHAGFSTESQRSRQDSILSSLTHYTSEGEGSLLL

binding result (mouse CX3CR1): no binding
binding result (rat CX3CR1): no binding
B1: m1F8-2 (antibody, V domains shown)
VH: QVQLQQSGAELARPGASVKLSCKASGFTFTNYWMQWIKQRPGQGLEWIGAIYPGSGESRYTRKFKGKATLTADKSSSTAYMQLNSLASEDSAVYYCARWAGYSRNAAYWGQGTLVTVSA
VL: DVLMTQTPLSLPVSLGDQASISCRSRQSIVHSSGNTYLEWYLQKPGQSPKLLIYKVSNRFSGVPDRFSGSGSGTDFTLKISRVEAEDLGVYYCFQGSHIPPTFGGGTKLEIK

binding result (mouse CX3CR1): no binding
binding result (rat CX3CR1): no binding
B2: m1F8-1 (antibody, V domains shown)
VH: B1 VH
VL: B1 VL with R26S
